Measured values from the RNAGym collection of RNA variant scans (doi:10.1093/molbev/msab373).

B1: Azoarcus group I ribozyme (parent)
chain: GUGCCUUGCGCCGGGAAACCACGCAAGGGAUGGUGUCAAAUUCGGCGAAACCUAAGCGCCCGCCCGGGCGUAUGGCAACGCCGAGCCAAGCUUCGGCGCCUGCGCCGAUGAAGGUGUAGAGACUAGACGGCACCCACCUAAGGCAAACGCUAUGGUGAAGGCAUAGUCCAGGGAGUGGCGAAAGUCACACAAACCGG

Variants of: B1
Assay: reverse-splicing fitness (ratio to wild type); higher = more active; in vitro selection; Mg2+ level not given
In short: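 An in vitro group I ribozyme library with randomized positions was T7-transcribed and gel-purified. In triplicate, 10 pmol RNA in EPPS pH 7.5 was reacted with 50 pmoles of a 30-nt RNA substrate for 1 h at 37 °C across several added MgCl2 levels (1–48 mM), then stopped with EDTA. Products were reverse transcribed from a substrate-complementary primer, PCR-amplified and sequenced (HiSeq 4000). Fitness is a variant's read proportion after selection over that before, normalised to wild type.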

Point of comparison: A111U A120G A145U C150A C169G, reverse-splicing fitness 0.0206. Against it:
- A111U A120G A145U C150A C169A U176A — lower, 0.0123
- A111U A120G A145U C150A C169A U176C — lower, 0.0102
- A111U A120G A145U C150A C169A U176G — lower, 0.00499
- A111U A120G A145U C150A C169G U176A — lower, 0.0165
- A111U A120G A145U C150A C169G U176C — lower, 0.0194
- A111U A120G A145U C150A C169G U176G — lower, 0.00465
- A111U A120G A145U C150A C169U — lower, 0.0181
- A111U A120G A145U C150A C169U U176A — higher, 0.0271
- A111U A120G A145U C150A C169U U176C — lower, 0.0173
- A111U A120G A145U C150A C169U U176G — lower, 0.0052
- A111U A120G A145U C150A U176A — lower, 0.0129
- A111U A120G A145U C150A U176C — lower, 0.018
- A111U A120G A145U C150A U176G — lower, 0.00474
- A111U A120G A145U C150G — lower, 0.02
- A111U A120G A145U C150G C169A — lower, 0.0162
- A111U A120G A145U C150G C169A U176A — lower, 0.0103
- A111U A120G A145U C150G C169A U176C — lower, 0.0105
- A111U A120G A145U C150G C169A U176G — lower, 0.00496
- A111U A120G A145U C150G C169G — higher, 0.021
- A111U A120G A145U C150G C169G U176A — lower, 0.00701
- A111U A120G A145U C150G C169G U176C — lower, 0.0049
- A111U A120G A145U C150G C169G U176G — lower, 0.00439
- A111U A120G A145U C150G C169U — higher, 0.0212
- A111U A120G A145U C150G C169U U176A — lower, 0.0147
- A111U A120G A145U C150G C169U U176C — lower, 0.0151
- A111U A120G A145U C150G C169U U176G — lower, 0.00433
- A111U A120G A145U C150G U176A — lower, 0.00927
- A111U A120G A145U C150G U176C — lower, 0.0142
- A111U A120G A145U C150G U176G — lower, 0.00309
- A111U A120G A145U C150U — higher, 0.104
- A111U A120G A145U C150U C169A — higher, 0.0657
- A111U A120G A145U C150U C169A U176A — lower, 0.0184
- A111U A120G A145U C150U C169A U176C — higher, 0.0207
- A111U A120G A145U C150U C169A U176G — lower, 0.00508
- A111U A120G A145U C150U C169G — higher, 0.129
- A111U A120G A145U C150U C169G U176A — higher, 0.0274
- A111U A120G A145U C150U C169G U176C — higher, 0.0378
- A111U A120G A145U C150U C169G U176G — lower, 0.00496
- A111U A120G A145U C150U C169U — higher, 0.105
- A111U A120G A145U C150U C169U U176A — higher, 0.0396
- A111U A120G A145U C150U C169U U176C — higher, 0.0395
- A111U A120G A145U C150U C169U U176G — lower, 0.0055
- A111U A120G A145U C150U U176A — higher, 0.0287
- A111U A120G A145U C150U U176C — higher, 0.0388
- A111U A120G A145U C150U U176G — lower, 0.0059
- A111U A120G A145U C169A — higher, 0.117
- A111U A120G A145U C169A U176A — lower, 0.0201
- A111U A120G A145U C169A U176C — higher, 0.0247
- A111U A120G A145U C169A U176G — lower, 0.00427
- A111U A120G A145U C169G — higher, 0.213
- A111U A120G A145U C169G U176A — higher, 0.0309
- A111U A120G A145U C169G U176C — higher, 0.045
- A111U A120G A145U C169G U176G — lower, 0.00486
- A111U A120G A145U C169U — higher, 0.164
- A111U A120G A145U C169U U176A — higher, 0.0488
- A111U A120G A145U C169U U176C — higher, 0.0495
- A111U A120G A145U C169U U176G — lower, 0.00682
- A111U A120G A145U U176A — higher, 0.0396
- A111U A120G A145U U176C — higher, 0.0483
- A111U A120G A145U U176G — lower, 0.00581
- A111U A120G C150A — lower, 0.02
- A111U A120G C150A C169A — lower, 0.015
- A111U A120G C150A C169A U176A — higher, 0.0237
- A111U A120G C150A C169A U176C — lower, 0.0201
- A111U A120G C150A C169A U176G — lower, 0.00606
- A111U A120G C150A C169G — higher, 0.0231
- A111U A120G C150A C169G U176A — higher, 0.0251
- A111U A120G C150A C169G U176C — higher, 0.0291
- A111U A120G C150A C169G U176G — lower, 0.00494
- A111U A120G C150A C169U — lower, 0.0186
- A111U A120G C150A C169U U176A — higher, 0.0295
- A111U A120G C150A C169U U176C — lower, 0.0205
- A111U A120G C150A C169U U176G — lower, 0.0082
- A111U A120G C150A U176A — lower, 0.0147
- A111U A120G C150A U176C — higher, 0.0216
- A111U A120G C150A U176G — lower, 0.00685
- A111U A120G C150G — lower, 0.0154
- A111U A120G C150G C169A — lower, 0.0142
- A111U A120G C150G C169A U176A — lower, 0.00974
- A111U A120G C150G C169A U176C — lower, 0.00933
- A111U A120G C150G C169A U176G — lower, 0.0057
- A111U A120G C150G C169G — lower, 0.018
